Substitutions are numbered along the chain they refer to.
B1: COV2-2147 IgG (antibody, V domains shown)
VH: QVQLAESGGGVVQPGRSLRLSCAASGFTFSSYAMHWVRQAPGKGLEWVAVISYDGSNKYYADSVKGRFTISRDNSKNTLYLQMNSLRAEDTAVYYCARSTSGSYYYGMDVWGQGTTVTVSS
VL: QSALTQPASVSGSPGQSITISCTGTSSDVGDYNYVSWYQQHPGKAPKLMIYDVSNRPSGVSNRFSGSKSGNTASLTISGLQAEDEAEYYCSSYTSSSTLLYVFGTGTKVTVL
B2: COVA2-14 IgG (antibody, V domains shown)
VH: QVQLVQSGAEVKKPGSSVKVSCKASGGTFSSYAIIWVRQAPGQGLEWMGGIIPIFGTANYAQKFQGRVTITTDESTSTAYMELSSLRSEDTAVYYCARVRYYDSSGYYEDYWGQGTLVTVSS
VL: EIVLTQSPATLSLSPGERATLSCRASQSVSSYLAWYQQEPGQAPRLLIYDASNRATGIPARFSGSGSGTDFTLTISSLEPEDFAVYYCQQRSNWPPMYTFGQGTKVEIK
B3: COVA2-18 IgG (antibody, V domains shown)
VH: B2 VH with Q1E, I35S, A58T, R100Y, Y101S, E109L, D110E, L117R
VL: B2 VL with E39K, M97S, Y98I, K105R, V106L
B4: CV27 Fab (Fab, V domains shown)
VH: B1 VH with A5V, V50L, T100F, S101G
VL: QSALTQPASVSGSPGQSITISCTGTSSDVGGYNYVSWYQQHPGKAPKLMIYDVSNRPSGVSNRFSGSKSGNTASLTISGLQAEDEADYYCSSYTSSSTPYVFGTGTKVTVL
B5: COVA2-14 Fab (Fab, V domains shown)
VH: B2 VH
VL: B2 VL
B6: COV2-2449 Fab (Fab, V domains shown)
VH: QVQLVESGGGVVQPGRSLRLSCATSGFTFSSFALHWVRQAPGKGLEWVTVISDDGNNKYYVDSVKGRFTISRDNSKNTLFLQMNSLRVEDTAIYYCARASYNSNWSIGEYFRDWGQGTLVTVSS
VL: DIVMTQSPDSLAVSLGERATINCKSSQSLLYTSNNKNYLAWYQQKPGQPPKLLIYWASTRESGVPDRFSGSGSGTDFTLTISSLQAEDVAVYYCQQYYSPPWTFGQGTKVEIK
B7: COV2-2143 Fab (Fab, V domains shown)
VH: EVQLVESGGGLVQPGGSLRLSCAASGFTVSSNYMSWVRQAPGKGLEWVSVIYSAGSTYYADSVKGRFSISRDKSKNTLYLQMNSLRAEDTAVYYCAKEGGSGSLRYYYYGMDVWGQGTTVTVSS
VL: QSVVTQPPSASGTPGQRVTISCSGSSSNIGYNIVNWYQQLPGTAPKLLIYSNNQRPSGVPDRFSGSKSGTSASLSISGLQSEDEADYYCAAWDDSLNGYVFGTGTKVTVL
B8: COV2-2449 IgG (antibody, V domains shown)
VH: B6 VH
VL: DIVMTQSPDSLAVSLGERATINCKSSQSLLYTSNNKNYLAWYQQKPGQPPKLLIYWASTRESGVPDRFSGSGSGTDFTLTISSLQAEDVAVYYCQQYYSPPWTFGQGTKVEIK
B9: COV2-2143 IgG (antibody, V domains shown)
VH: B7 VH
VL: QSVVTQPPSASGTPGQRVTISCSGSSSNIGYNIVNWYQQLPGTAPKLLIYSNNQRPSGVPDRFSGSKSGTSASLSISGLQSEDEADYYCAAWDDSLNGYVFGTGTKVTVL
B10: CV27 IgG (antibody, V domains shown)
VH: B1 VH with A5V, V50L, T100F, S101G
VL: B4 VL

molecular target: T1, SARS-CoV-2 spike protein (FL-GCN4-Avi-His, 2P, biotinylated trimer) (SARS-CoV-2, Wuhan-Hu-1 (strain named …, UniProt P0DTC2, stabilised, biotin on the Avi tag)); test: BLI; details: both partners purified

Question: Does B1 bind?
Answer: binds

Question: Does B2 bind?
Answer: binds

Question: Does B3 bind?
Answer: binds

Question: Does B4 bind?
Answer: binds

Question: Does B5 bind?
Answer: binds

Question: Does B6 bind?
Answer: binds

Question: Does B7 bind?
Answer: binds

molecular target: T1, SARS-CoV-2 spike protein …; test: ELISA; details: both partners purified

Question: Does B8 bind?
Answer: binds

Question: Does B9 bind?
Answer: binds

Question: Does B10 bind?
Answer: binds

— publication PMC9596371 (Nature Chemical Biology, 2022)
